Data reported in PMC6053351, “Structural and biochemical insights into human zinc finger protein AEBP2 reveals interactions with RBBP4”.

B1: GC-rich (dsDNA)
DNA 1: GCGGCCCGCGCCCGCCGCCCCGCCGCGGCCCGCGCGGCCCGCGC
DNA 2: GCGCGGGCCGCGCGGGCCGCGGCGGGGCGGCGGGCGCGGGCCGC
B2: T1 (dsDNA)
DNA 1: GATCTTTAGTTAACTTCCTCTCTGTCTGCAGGCCACTCCAGATC
DNA 2: GATCTGGAGTGGCCTGCAGACAGAGAGGAAGTTAACTAAAGATC
B3: AT-rich (dsDNA)
DNA 1: ATAATTTATATTTATTATTTTATTATAATTTATATAATTTATAT
DNA 2: ATATAAATTATATAAATTATAATAAAATAATAAATATAAATTAT

Target: AEBP2 ZF1-3 (Homo sapiens, UniProt Q6ZN18 258-357)
Assay: fluorescence polarization; FPA with dsDNA: 25 mM Tris pH 7.4, 150 mM salt (salt identity and rest truncated in material), 50 nM FAM-DNA, 200 ul; G3A4 buffer and temperature not given in material
Settings: protein: recombinant, tags: His6
[1] = label: 5'-FAM on sense strand, blunt

Sequence of AEBP2 ZF1-3 (Q6ZN18 258-357): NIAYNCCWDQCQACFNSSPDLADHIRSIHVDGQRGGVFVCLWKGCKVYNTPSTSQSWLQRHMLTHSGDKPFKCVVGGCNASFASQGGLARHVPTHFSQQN

Binder	binding result [1]	binding result (label: 5'-FAM, G4)
B1	no binding	–
B2	no binding	–
B3	no binding	–
AAAAAAGGGAAAAGGGAAAAGGGAAAAGGGAAAAAAAAAA (structured_DNA) [G3A4]	–	no binding
